From paper PMC7493027, “Mps1 dimerization and multisite interactions with Ndc80 complex enable responsive spindle assembly checkpoint signaling” (Journal of Molecular Cell Biology, 2020)

T1: GST-Nuf2^1–169 (UniProt Q9BZD4 1-169)
T1 construct: Nuf2 (nuclear filament-containing protein 2), residues 1-169, with the calponin-homology domain
T1 sequence (looked up): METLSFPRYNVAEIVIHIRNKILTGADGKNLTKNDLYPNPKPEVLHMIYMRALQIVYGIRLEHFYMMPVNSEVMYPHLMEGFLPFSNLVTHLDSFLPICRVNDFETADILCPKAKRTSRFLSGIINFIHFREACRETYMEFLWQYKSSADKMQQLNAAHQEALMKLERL

T2: GST-Hec1^1–196 (UniProt O14777 1-196)
T2 construct: Hec1 (highly expressed in cancer 1)
T2 sequence (looked up): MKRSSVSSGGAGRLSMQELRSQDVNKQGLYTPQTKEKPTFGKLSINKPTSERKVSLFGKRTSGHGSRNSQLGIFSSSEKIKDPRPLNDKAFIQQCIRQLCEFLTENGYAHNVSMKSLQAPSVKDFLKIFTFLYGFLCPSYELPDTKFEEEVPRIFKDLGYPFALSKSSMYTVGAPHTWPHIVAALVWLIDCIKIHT

B1: Mps1^C342-WT fragment (amino acids 516–857), GST-tagged or 6× His-tagged (domain or fragment, human, UniProt P33981 516-857, looked up)
chain: ECISVKGRIYSILKQIGSGGSSKVFQVLNEKKQIYAIKYVNLEEADNQTLDSYRNEIAYLNKLQQHSDKIIRLYDYEITDQYIYMVMECGNIDLNSWLKKKKSIDPWERKSYWKNMLEAVHTIHQHGIVHSDLKPANFLIVDGMLKLIDFGIANQMQPDTTSVVKDSQVGTVNYMPPEAIKDMSSSRENGKSKSKISPKSDVWSLGCILYYMTYGKTPFQQIINQISKLHAIIDPNHEIEFPDIPEKDLQDVLKCCLKRDPKQRISIPELLAHPYVQIQTHPVNQMAKGTTEEMKYVLGQLVGLNSPNSILKAAKTLYEHYSGGESHNSSSSKTFEKKRGKK
notes: Mps1, human, amino acids 516-857: protein kinase domain (516-792) and C-tail (793-857); Two differently tagged copies of one fragment: the GST copy was the bait on beads, the 6× His copy the prey; each chain bears only one of the two tags; also called GST-Mps1^C342-WT; 6× His-Mps1^C342-WT; source: recombinant, purified
B2: MBP-tagged Mps1 tetratricopeptide repeat domain (TPR, amino acids 62–192) (domain or fragment, human, UniProt P33981 62-192, looked up)
chain: PEDWLSLLLKLEKNSVPLSDALLNKLIGRYSQAIEALPPDKYGQNESFARIQVRFAELKAIQEPDDARDYFQMARANCKKFAFVHISFAQFELSQGNVKKSKQLLQKAVERGAVPLEMLEIALRNLNLQKK
notes: Mps1, human, tetratricopeptide repeat domain, amino acids 62-192; also called Mps1^TPR; source: Escherichia coli, purified
B3: MBP-tagged Mps1 C-terminal extension (CTE, amino acids 193–300) (domain or fragment, human, UniProt P33981 193-300, looked up)
chain: QLLSEEEKKNLSASTVLTAQESFSGSLGHLQNRNNSCDSRGQTTKARFLYGENMPPQDAEIGYRNSLRQTNKTKQSCPFGRVPVNLLNSPDCDVKTDDSVVPCFMKRQ
notes: Mps1, human, C-terminal extension of N300, amino acids 193-300; source: Escherichia coli, purified

What was measured:
[1] = molecular target: the molecule itself; assay: pull-down; GST-Mps1^C342-WT, GST-Mps1^C342-KD or GST-Mps1^PK-KD on agarose beads; purified 6× His-tagged Mps1^C342-WT or -KD; SDS-PAGE and anti-6× His blot (Figure 3C, Supplementary Figure S4E)
GST-Nuf2^1–169 = molecular target: T1, GST-Nuf2^1–169; assay: pull-down; GST-Hec1^1–196, GST-Hec1^1–196-9D or GST-Nuf2^1–169 on agarose beads as affinity matrices; MBP-tagged Mps1 truncations purified from E. coli; SDS-PAGE and anti-MBP blot; conditions: both partners purified
GST-Hec1^1–196 = molecular target: T2, GST-Hec1^1–196; assay: as above; conditions: both partners purified

Row | Binder | binding result [1] | binding result (GST-Nuf2^1–169) | binding result (GST-Hec1^1–196)
1 | B1 | binds | – | –
2 | B2 | – | binds | binds
3 | B3 | – | binds | binds
